B1: E13E (protein, UniProt P15891 2-592, looked up)
Actin-binding protein: ALEPIDYTTHSREIDAEYLKIVRGSDPDTTWLIISPNAKKEYEPESTGSSFHDFLQLFDETKVQYGLARVSPPGSDVEKIIIIGWCPDSAPLKTRASFAANFAAVANNLFKGYHVQVTARDEDDLDENELLMKISNAAGARYSIQTSSKQQGKASTPPVKKSFTPSKSPAPVSKKEPVKTPSPAPAAKISSRVNDNNDDDDWNEPELKERDFDQAPLKPNQSSYKPIGKIDLQKVIAEEKAKEDPRLVQKPTAAGSKIDPSSDIANLKNESKLKRDSEFNSFLGTTKPPSMTESSLKNDDDKVIKGFRNEKSPAQLWAERKAKQNSGNAETKAEAPKPEVPEDEPEGEPDVKDLKSKFEGLAASEKEEEEMENKFAPPPKKSEPTIISPKPFSKPQEPVKAEEAEQPKTDYKKIGNPLPGMHIEADNEEEPEENDDDWDDDEDEAAQPPLPSRNVASGAPVQKEEPEQEEIAPSLPSRNSIPAPKQEEAPEQAPEEEIEEEAEEAAPQLPSRSSAAPPPPPRRATPEKKPKENPWATAEYDYDAAEDNELTFVENDKIINIEFVDDDWWLGELEKDGSKGLFPSNYVSLGN
modifications: synonymous codon change E13E in SH3
B2: Abp1SH3 in Abp1: Abp1 with its own SH3 reintroduced by editing (control) (protein)
chain: MALEPIDYTTHSREIDAEYLKIVRGSDPDTTWLIISPNAKKEYEPESTGSSFHDFLQLFDETKVQYGLARVSPPGSDVEKIIIIGWCPDSAPLKTRASFAANFAAVANNLFKGYHVQVTARDEDDLDENELLMKISNAAGARYSIQTSSKQQGKASTPPVKKSFTPSKSPAPVSKKEPVKTPSPAPAAKISSRVNDNNDDDDWNEPELKERDFDQAPLKPNQSSYKPIGKIDLQKVIAEEKAKEDPRLVQKPTAAGSKIDPSSDIANLKNESKLKRDSEFNSFLGTTKPPSMTESSLKNDDDKVIKGFRNEKSPAQLWAERKAKQNSGNAETKAEAPKPEVPEDEPEGEPDVKDLKSKFEGLAASEKEEEEMENKFAPPPKKSEPTIISPKPFSKPQEPVKAEEAEQPKTDYKKIGNPLPGMHIEADNEEEPEENDDDWDDDEDEAAQPPLPSRNVASGAPVQKEEPEQEEIAPSLPSRNSIPAPKQEEAPEQAPEEEIEEEAEEAAPQLPSRSSAAPPPPPRRATPEKKPKENPWATAEYDYDAAEDNELTFVENDKIINIEFVDDDWWLGELEKDGSKGLFPSNYVSLGN
modifications: left off: DHFR F[1,2], C-terminal, kept | FLAG, C-terminal, kept

Legend:
Assay type in all cases: cell-based, Saccharomyces cerevisiae
Hua2 [1] = test: Deep mutational scanning of Abp1 SH3, Abp1-Hua2 DHFR-PCA (DMS score)
Outline: (§1)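 Saturation mutagenesis (NNN per codon) of Abp1 SH3, reintegrated at the genomic locus in yeast and mated with Hua2- or Lsb3-DHFR F[3] prey strains. Diploids underwent two rounds of liquid DHFR-PCA selection (72 h each, 30 °C), in biological duplicate. Mutant abundance was tracked by Illumina sequencing against the pre-selection reference.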

Lsb3 = test: Deep mutational scanning of Abp1 SH3, Abp1-Lsb3 DHFR-PCA (DMS score); details: Abp1-Lsb3 DHFR-PCA; WT = 0; Fig. S3C-D
Outline: as §1

Hua2 [2] = test: Low-throughput liquid DHFR-PCA of selected Abp1 SH3 mutants (Fig. S3F); details: average
Description: Liquid DHFR-PCA low-throughput experiments were performed to validate the PPIs identified as affected by the SH3 domain deletions in the high-throughput solid DHFR-PCA screen (256 PPIs weaker or lost and 116 PPIs stronger or gained following domain deletions). Mating and the diploid selection were performed as described for the large-scale experiment, with the exception that the plates were in 384 formats. Following the second diploid selection, diploid cells were inoculated in a 96 v-shaped well plate using a robotically manipulated 96 pin tool in a synthetic complete medium with MSG at pH 6.0 with NAT and HPH. After 48 h of growth, optical density (OD) was read using a TECAN Infinite F200 Pro, and dilutions to 1 OD in sterile nanopure water were prepared. Cells were then diluted to 0.1 OD by combining 25 µl of cell suspension at OD = 1 and 225 µl of PCA selection media without agar in a 96-wells plate. Plates were incubated at 30 °C in a TECAN Infinite M Nano and OD was monitored each 15 min for 72 h. […]
Selected non-conserved positions (E6 , E13, N15 and N27) sensitivities to mutations for the Abp1-Hua2 PPI were tested in a low -throughput liquid DHFR -PCA assay. The growth of the mutants in the low -throughput experiment (average of four replicates of the total OD for each growth curve, y axis ) is compared to the mutants DMS score (x axis). […]

Abp1 (1xFLAG) = test: Western blot expression level of Abp1 SH3 mutants (Fig. S3C-D)
Description: Precultures of yeast cells expressing baits fused with the DHFR F[1,2]-FLAG were grown overnight at 30 °C with agitation in synthetic complete medium. The next day, cells were expanded in synthetic complete medium to reach their exponential phase (OD600 of around 1.0), pelleted, and frozen at −80 °C. The equivalent of fifty OD600 of cells was resuspended in ice-cold yeast lysis buffer (10 mM Tris-HCl pH 7.4, 150 mM NaCl, 0.5 mM EDTA (Millipore Sigma), 1% Triton X-100 (Millipore Sigma), and one cOmplete Mini Protease Inhibitor Cocktail (Millipore Sigma) per 10 mL) with […] glass beads (Millipore Sigma) and disrupted at 4 °C by 10 cycles of 2 min vortexing and 2 min cooldown. The equivalent of […] of lysed cells was used for the immunoprecipitation of the bait proteins using FLAG-M2 agarose beads (Millipore Sigma). The beads were incubated with the cell lysates for 120 min at 4 °C with a slow rotation, followed by three washes with the yeast lysis buffer.
Protein extracts and affinity-purified baits from yeast and human lysed cells were migrated on 10% polyacrylamide gels. The separated proteins were then transferred to nitrocellulose membranes. Validation of correct protein loading was done with ponceau staining of the membranes. Before the primary antibody incubations, membranes were blocked in 5% milk. Protein signals were detected on an Amersham Imager 600RGB (GE Healthcare) following the incubation of the membranes with the appropriate HRP-conjugated secondary antibodies and the Clarity Western ECL Substrate (Bio-Rad). The antibodies used in this study are M2-HRP (A8592, Sigma, 1/50,000), rabbit anti-FLAG (F7425, Sigma, 1/1000), PAK (SC-881, Santa Cruz, 1/200), p130cas/BCAR1 (SC-860, Santa Cruz, 1/200), actin (Cell Signaling Technology, 1/2000), anti-mouse HRP (Cell Signaling Technology, 1/10,000) and anti-rabbit HRP (Cell Signaling Technology, 1/10,000). The quantification of the WB signals was performed with the Amersham Imager 600 analysis software (GE Healthcare). […]
C, WB comparing expression levels of selected Abp1 SH3 mutants with WT Abp1. An asterisk represents a stop codon, which inhibits translation of the 1xFLAG epitope. D, Quantification of the relative level of expression of Abp1 SH3 mutants by WB as in C, (log2 of Abp1 SH3 mutant/Abp1 WT ratio, WB relative level of expression of 0 for WT Abp1) compared to their DMS scores (Hua2 (left): Pearson’s r = -0.34, p-value = 0.46, Lsb3 […]
(right): Pearson’s r = -0.81, p-value = 0.03). […]
Most […]
interface residues sensitive to mutations, such as Y7, E13, E16, V3 1, D32, D34, L48 and Y53, specifically affect Hua2 PPI. See also Supplementary Table 4.

Abp1 PPIs = test: DHFR-PCA of Abp1 SH3-swapped baits (Fig. 2B-D, S2C, S2F); details: DHFR-PCA, quadruplicate
Outline: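 Yeast DHFR-PCA in which Abp1 baits, carrying their SH3 replaced by CRISPR–Cas9 with one of 27 yeast SH3s or human CTTN, HCLS1 or DBNL SH3s, were mated against 575 SH3-associated DHFR F[3] preys plus 40 negative controls. Four tests were run per PPI. Diploids were selected twice (48 h, 30 °C), then grown 4 days on PCA selection media.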

[3] = system: growth of ABP1 SH3-swapped strains in hygromycin B; test: Hygromycin B resistance assay in liquid culture (Fig. S2E); details: 37 °C, 24 h, n = 3
Description: For the hygromycin B resistance assays in liquid cultures, the ABP1 SH3 swapped strains including the ABP1 SH3-deleted and ABP1 KO strain were grown overnight at 30 °C as precultures in synthetic complete medium with MSG. The next day, OD was measured with a TECAN Infinite F200 Pro plate reader, and the cultures were diluted to OD of 1.0 in sterile nanopure water. The different strains were further diluted at 0.1 OD by adding 25 µl of cultures to 225 µl of synthetic complete medium with MSG or with MSG and Hygromycin B 120 µg/mL in 96 wells plate (final concentration of 108 µg/mL). Cells were incubated in a TECAN Infinite M Nano plate reader at 37 °C for 24 h and OD was measured every 15 min.

Molecule | DMS score Hua2 (Hua2 [1]; Abp1-Hua2 DHFR-PCA, WT = 0, Fig. S3C-D) | DMS Score (Hua2 [1]; condition HUA2_MTX2, amino acid mutation format, Fig. S3F) | DMS score Lsb3 (Lsb3) | ave_au (DMS validation) (Hua2 [2]) | Ratio Mutant/WT Flag (Abp1 (1xFLAG); Western blot Flag signal of mutant relative to WT) | Flag (2 bands) (Abp1 (1xFLAG); Western blot, Flag signal, 2 bands) | Kendall's τ of PPI profile with WT Abp1 (Abp1 PPIs) | Hygromycin phenotype [3]
B1 | -0.2784 | 1.334 | -0.3311 | 78.0323 au | 0.6362 | 23257 | – | –
B2 | – | – | – | – | – | – | 0.93 | fully reproduces WT sensitivity
